# Substitutions are numbered along the chain they refer to.
# B1: 1503_H05 (PG16) (TCN-119) (antibody, V domains shown)
# VH: QEKLVESGGGVVQPGGSLRLSCLASGFTFHKYGMHWVRQAPGKGLEWVALISDDGMRKYHSDSMWGRVTISRDNSKNTLYLQFSSLKVEDTAMFFCAREAGGPIWHDDVKYYDFNDGYYNYHYMDVWGKGTIVTVSS
# VL: QSALTQPASVSGSPGQTITISCNGTRSDVGGFDSVSWYQQSPGKAPKVMVFDVSHRPSGISNRFSGSKSGNTASLTISGLHIEDEGDYFCSSLTDRSHRIFGGGTKVTVLG
# B2: 1489_I13 (PG16) (TCN-120) (antibody, V domains shown)
# VH: B1 VH with K3Q, V5L, D62N, I132T
# VL: B1 VL with R26S
# B3: 1469_M23 (PG16) (TCN-118) (antibody, V domains shown)
# VH: B1 VH with I132T
# VL: B1 VL with K44R, V107L
# B4: 1456_A12 (PG16) (TCN-117) (antibody, V domains shown)
# VH: B1 VH with Q1H, K3Q, S7A, K87R, I132K
# VL: B1 VL with R26S, S27R, I60M, V107L
# Biological target: HIV-1 Env of isolate CAP45 (clade C pseudovirus) (HIV-1)
# Assay: cell-based or functional assay
row,Binder,"IC50 (neutralization, TZM-bl pseudovirus assay)"
1,B1,< 0.01 µg/mL
2,B2,< 0.01 µg/mL
3,B3,< 0.01 µg/mL
4,B4,< 0.01 µg/mL

# Biological target: HIV-1 Env of isolate THRO.18 (clade B pseudovirus) (HIV-1)
# Assay: cell-based or functional assay
row,Binder,"IC50 (neutralization, TZM-bl pseudovirus assay)"
1,B1,4.12 µg/mL
2,B2,7.41 µg/mL
3,B3,7.01 µg/mL
4,B4,2.08 µg/mL

# Biological target: HIV-1 Env of isolate ZM249 (clade C pseudovirus) (HIV-1)
# Assay: cell-based or functional assay
row,Binder,"IC50 (neutralization, TZM-bl pseudovirus assay)"
1,B1,< 0.01 µg/mL
2,B2,< 0.01 µg/mL
3,B3,< 0.01 µg/mL
4,B4,< 0.01 µg/mL

# Biological target: HIV-1 Env of isolate PVO.4 (clade B pseudovirus) (HIV-1)
# Assay: cell-based or functional assay
row,Binder,"IC50 (neutralization, TZM-bl pseudovirus assay)"
1,B1,11 µg/mL
2,B2,20.6 µg/mL
3,B3,21.2 µg/mL
4,B4,10.4 µg/mL

# Biological target: HIV-1 92RW020 Env (HIV-1 92RW020)
# Assay: cell-based or functional assay
row,Binder,"IC50 (ug/ml), pseudovirus neutralization, TZM-bl assay"
1,B1,0.02 µg/mL
2,B2,0.03 µg/mL
3,B3,0.05 µg/mL
4,B4,0.05 µg/mL

# Biological target: HIV-1 Env of isolate ZM214 (clade C pseudovirus) (HIV-1)
# Assay: cell-based or functional assay
row,Binder,"IC50 (neutralization, TZM-bl pseudovirus assay)"
1,B1,> 25 µg/mL
2,B2,> 25 µg/mL
3,B3,> 25 µg/mL
4,B4,> 25 µg/mL

# Biological target: HIV-1 Env of isolate AC10 (clade B pseudovirus) (HIV-1)
# Assay: cell-based or functional assay
row,Binder,"IC50 (neutralization, TZM-bl pseudovirus assay)"
1,B1,< 0.01 µg/mL
2,B2,< 0.01 µg/mL
3,B3,< 0.01 µg/mL
4,B4,< 0.01 µg/mL

# Biological target: HIV-1 JR-FL Env E168K (HIV-1 JR-FL)
# Assay: cell-based or functional assay
row,Binder,"IC50 (ug/ml), pseudovirus neutralization, TZM-bl assay"
1,B1,0.002 µg/mL
2,B2,0.005 µg/mL
3,B3,0.005 µg/mL
4,B4,0.003 µg/mL

# Biological target: HIV-1 ADA Env (HIV-1 ADA)
# Assay: cell-based or functional assay
row,Binder,"IC50 (ug/ml), pseudovirus neutralization, TZM-bl assay"
1,B1,0.003 µg/mL
2,B2,0.008 µg/mL
3,B3,0.005 µg/mL
4,B4,0.005 µg/mL

# Biological target: HIV-1 Env of isolate REJ04541 (clade B pseudovirus) (HIV-1)
# Assay: cell-based or functional assay
row,Binder,"IC50 (neutralization, TZM-bl pseudovirus assay)"
1,B1,0.22 µg/mL
2,B2,0.34 µg/mL
3,B3,0.39 µg/mL
4,B4,< 0.01 µg/mL

# Biological target: HIV-1 Env of isolate DU156 (clade C pseudovirus) (HIV-1)
# Assay: cell-based or functional assay
row,Binder,"IC50 (neutralization, TZM-bl pseudovirus assay)"
1,B1,< 0.01 µg/mL
2,B2,< 0.01 µg/mL
3,B3,< 0.01 µg/mL
4,B4,< 0.01 µg/mL

# Biological target: HIV-1 Env of isolate Du172 (clade C pseudovirus) (HIV-1)
# Assay: cell-based or functional assay
row,Binder,"IC50 (neutralization, TZM-bl pseudovirus assay)"
1,B1,< 0.01 µg/mL
2,B2,< 0.01 µg/mL
3,B3,< 0.01 µg/mL
4,B4,< 0.01 µg/mL

# Biological target: MuLV envelope protein (control pseudovirus) (MuLV)
# Assay: cell-based or functional assay
row,Binder,"IC50 (neutralization, TZM-bl pseudovirus assay)"
1,B1,> 25 µg/mL
2,B2,> 25 µg/mL
3,B3,> 25 µg/mL
4,B4,> 25 µg/mL

# Biological target: HIV-1 Env of isolate CAAN (clade B pseudovirus) (HIV-1)
# Assay: cell-based or functional assay
row,Binder,"IC50 (neutralization, TZM-bl pseudovirus assay)"
1,B1,13.5 µg/mL
2,B2,24.9 µg/mL
3,B3,17.7 µg/mL
4,B4,10.6 µg/mL

# Biological target: HIV-1 Env of isolate ZM233 (clade C pseudovirus) (HIV-1)
# Assay: cell-based or functional assay
row,Binder,"IC50 (neutralization, TZM-bl pseudovirus assay)"
1,B1,< 0.01 µg/mL
2,B2,< 0.01 µg/mL
3,B3,< 0.01 µg/mL
4,B4,< 0.01 µg/mL

# Biological target: HIV-1 Env of isolate DU422 (clade C pseudovirus) (HIV-1)
# Assay: cell-based or functional assay
row,Binder,"IC50 (neutralization, TZM-bl pseudovirus assay)"
1,B1,0.71 µg/mL
2,B2,1.87 µg/mL
3,B3,0.97 µg/mL
4,B4,0.36 µg/mL

# Biological target: HIV-1 Env of isolate TR0.11 (clade B pseudovirus) (HIV-1)
# Assay: cell-based or functional assay
row,Binder,"IC50 (neutralization, TZM-bl pseudovirus assay)"
1,B1,4.3 µg/mL
2,B2,10.9 µg/mL
3,B3,7.52 µg/mL
4,B4,3.05 µg/mL

# — patent US20250320281A1
